The source of these data is article PMC10190533, “Engineering Escherichia coli to Utilize Erythritol as Sole Carbon Source” (Advanced Science, 2022).

One may read the stoichiometry N as a count of units in the complex or per binding partner.

The series concerns the molecule itself. Kind of series: SEC + native gel or EMSA.

B1: eryD, erythritol-binding transcriptional repressor from Ochrobactrum spp. (natural protein)
chain: MADADDSLALRAAWLHFVAGMTQSAVAKRLGLPSVKAHRLIAKAVADGAVKVTIDGDITECIDLENRLADLYGLDYCEVAPDIGEEGLPLMALGHAGANFMRREIEHGDHEVIGIGHGRTLSAAVGYMPRVMANDLRFVSLLGGLTRNFAANPHDVMHRIAEKTGMPAYVMPVPFFANTAEDREVLLAQRGVTTVFDMGCRAELKIVGIGTVDAQAQLVTSGMIELGEVEEIANLGGVGEMLGHFFNANGQWLETALTGRTIAASVENADMSRIVALAGGLSKVDAIRAVLKSGRLYGLITDERTAKALIGQPNGK
notes: also called erythritol-responding genetic repressor eryD
Regarding B1, the “stoichiometry N” value amounted to 4.
